Two substances from patent publication US20230077205A1 can be followed below.

For assay [1], the target named is Protein A, MabSelect Sure (protein A affinity resin ligand). As to the kind of experiment: resin slurry partitioning on MabSelect Sure protein A resin; reference Ab6; Elute: 20 mM NaAcetate, pH 3.5.
For assay [2] the target is unchanged. As to the kind of experiment: resin slurry partitioning on MabSelect Sure protein A resin; reference Ab6; Strip: 100 mM acetic acid.
Assay [3] shares this target. The experiment in a line: resin slurry partitioning on MabSelect Sure protein A resin; reference Ab6; Equil/wash: 10 mM NaPhosphate, pH 6.5.
Assay [4] shares this target. As to the kind of experiment: resin slurry partitioning on MabSelect Sure protein A resin; reference Ab6; High salt wash: 10 mM NaPhosphate, pH 6.5, 0.5M NaCl.

In assay [1], PLBL2 had a log α (log Kp PLBL2 - log Kp Ab6) of -0.3.
For the substance PLBL2 (enzyme), the values for the log α (log Kp PLBL2 - log Kp Ab6) in assay [2], in assay [3] and in assay [4] were 0, -2 and -2, respectively.
